Results as given in US20030224453A1, “Structural models for cytoplasmic domains of transmembrane receptors” (priority 1998, published 2003).
Ends that are not written are not given here.

T1: integrin β3 cytoplasmic domain (Homo sapiens, UniProt P05106)
T1 sequence (P05106 742-788 limits assumed): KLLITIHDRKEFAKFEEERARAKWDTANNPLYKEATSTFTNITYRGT

T2: Full-length β3 peptide (β3 cytoplasmic tail) (UniProt P05106 742-788, limits assumed)
T2 construct: domain: cytoplasmic domain; also called wild-type β3
T2 peptide (looked up): T1 sequence (P05106 742-788 limits assumed)


Experiments:
[1] = molecular target: T1, integrin β3 cytoplasmic domain; assay: Immunochemical ELISA: αIIb peptides added to fixed saturating β3 peptide, competition for anti-model protein antibody binding to coated αIIbβ3 (EC50 determination); conditions: dose of αIIb peptide resulting in B/B0=0.5 with fixed saturating β3 peptide (20-50 nM)
Source text: Antibodies raised against a mimic of the present invention were used in an immunochemical assay to identify compounds that bind to the 3 cytoplasmic domain and induce a conformation change. In this assay, the binding of the αIIb and β3 cytoplasmic tails was first analyzed. […] Furthermore, as shown in this Table, point mutations or deletions that disrupted this heptapeptide sequence in the αIIb cytoplasmic domain also disrupted interaction with β3.
αIIbβ3 was purified by gel filtration in accordance with procedures described by Du et al. (Cell 65:409-416 (1991)) with omission of the heparin and Con A affinity chromatography steps. The final product was greater than 95% homogenous as judged by SDS PAGE. In the enzyme-linked immunosorbent assay (ELISA) the αIIbβ3 was used at a concentration of 5 μg/ml in a coating buffer containing 0.1 M NaHCO3 and 0.05% NaN3. Fifty ul/well was used to coat IMMULON II microtiter wells at 4° C. overnight. After removal of the coating solution, 150 Al blocking buffer (coating buffer containing 5% bovine serum albumin) was added. After an additional one hour incubation at 4° C., the blocking buffer was removed and the plates were washed three times with wash buffer (0.01 M Tris, 0.15 M NaCl, 0.01% thimerisol, 0.05% Tween 20, pH 8.0). Twenty-five microliters of the competitor was added to each well followed by 25 μl of a dilution of the anti-model protein antibody. Following mixing, the plate was covered for one hour at 37° C. and washed four times with wash buffer. To quantify bound antibody, 50 μl of horseradish peroxidase-conjugated goat anti-rabbit IgG (Biorad) was diluted to a concentration of 1/1000 in wash buffer containing 1 mg/ml bovine serum albumin. These plates were then incubated at 37° C. for 1.5 hours. After four washes, bound antibody was assayed by measuring peroxidase activity with O-phenylenediamine as a substrate and quantifying reaction product by its optical density at 490 nm. Data were expressed as B/B0 where B=A490 in the presence of competitor and B0=A490 in its absence. In some experiments, varying concentrations of αIIb peptides were added to a fixed, saturating, quantity of β3 peptide (20-50 nM). Competition was again expressed as B/BO, however, B0 was the A490 in the presence of the β3 peptide and no added αIIb peptide. EC50 was defined as the dose of αIIb resulting in B/B0=0.5.

[2] = molecular target: T2, Full-length β3 peptide (β3 cytoplasmic …); assay: αIIb peptide titrated with fixed saturating β3 peptide; inhibition of antibody binding to coated αIIbβ3 (ELISA), EC50 at B/B0=0.5
Procedure: In the enzyme-linked immunosorbent assay (ELISA) the αIIbβ3 was used at a concentration of 5 μg/ml in a coating buffer containing 0.1 M NaHCO₃ and 0.05% NaN₃. Fifty ul/well was used to coat IMMULON II microtiter wells at 4° C. overnight. After removal of the coating solution, 150 Al blocking buffer (coating buffer containing 5% bovine serum albumin) was added. After an additional one hour incubation at 4° C., the blocking buffer was removed and the plates were washed three times with wash buffer (0.01 M Tris, 0.15 M NaCl, 0.01% thimerisol, 0.05% Tween 20, pH 8.0). […] Following mixing, the plate was covered for one hour at 37° C. and washed four times with wash buffer. To quantify bound antibody, 50 μl of horseradish peroxidase-conjugated goat anti-rabbit IgG (Biorad) was diluted to a concentration of 1/1000 in wash buffer containing 1 mg/ml bovine serum albumin. These plates were then incubated at 37° C. for 1.5 hours. After four washes, bound antibody was assayed by measuring peroxidase activity with O-phenylenediamine as a substrate and quantifying reaction product by its optical density at 490 nm. Data were expressed as B/B0 where B=A₄₉₀ in the presence of competitor and B0=A₄₉₀ in its absence.

Molecule | EC50 [1] | EC50 [2]
PLEEDDEEGQ | > 1000 nM | 
KVGFFKRNRPPLEE | > 1000 nM | 
PPLEED [PPLEED] | > 1000 nM | 
KVGFFKRNRPPLEEAAEEGQ | > 1000 nM | 
KVGFFPLEEAAEEGQ | > 1000 nM | 
KVGFFKRNRPPLEEDD [αIIb peptide KVGFFKRNRPPLEEDD] |  | 5 nM
RPPLEED [αIIb heptapeptide RPPLEED] |  | 30 nM
NRPPLEEDDEEGQ [αIIb peptide NRPPLEEDDEEGQ] |  | 8 nM
KVGFFKRNRPPLEEDDEEGQ [αIIb peptide KVGFFKRNRPPLEEDDEEGQ] |  | 3 nM
KRNRPPLEEDDEEGQ [αIIb peptide KRNRPPLEEDDEEGQ] |  | 6 nM
NRPPLEEDD [αIIb peptide NRPPLEEDD] |  | 20 nM
